± gives the standard deviation of the averaged measurements.
Experiment: total protein half-life in vivo (active degradation + dilution); higher = more stable protein
[1] = E. coli NCM3722 delta-clpP delta-lon delta-hslV, growth: N-lim chemostat, doubling time 6 h
[2] = E. coli NCM3722 delta-clpP, growth: N-lim chemostat, doubling time 6 h
[3] = E. coli NCM3722 delta-hslV, growth: N-lim chemostat, doubling time 6 h
[4] = E. coli NCM3722 delta-lon, growth: N-lim chemostat, doubling time 6 h
[5] = E. coli NCM3722 delta-smpB, growth: N-lim chemostat, doubling time 6 h
[6] = wild type E. coli NCM3722, growth: C-lim chemostat, doubling time 3 h
[7] = wild type E. coli NCM3722, growth: C-lim chemostat, doubling time 6 h
[8] = wild type E. coli NCM3722, growth: C-lim chemostat, doubling time 12 h
[9] = wild type E. coli NCM3722, growth: N-lim chemostat, doubling time 6 h
[10] = wild type E. coli NCM3722, growth: N-lim chemostat, doubling time 12 h
[11] = wild type E. coli NCM3722, growth: P-lim chemostat, doubling time 6 h
[12] = wild type E. coli NCM3722, growth: P-lim chemostat, doubling time 12 h

Sequence	total protein half-life in vivo [1] [h]	total protein half-life in vivo [2] [h]	total protein half-life in vivo [3] [h]	total protein half-life in vivo [4] [h]	total protein half-life in vivo [5] [h]	total protein half-life in vivo [6] [h]	total protein half-life in vivo [7] [h]	total protein half-life in vivo [8] [h]	total protein half-life in vivo [9] [h]	total protein half-life in vivo [10] [h]	total protein half-life in vivo [11] [h]	total protein half-life in vivo [12] [h]
MHKFTKALAAIGLAAVMSQSAMAENLKLGFLVKQPEEPWFQTEWKFADKAGKDLGFEVIKIAVPDGEKTLNAIDSLAASGAKGFVICTPDPKLGSAIVAKARGYDMKVIAVDDQFVNAKGKPMDTVPLVMMAATKIGERQGQELYKEMQKRGWDVKESAVMAITANELDTARRRTTGSMDALKAAGFPEKQIYQVPTKSNDIPGAFDAANSMLVQHPEVKHWLIVGMNDSTVLGGVRATEGQGFKAADIIGIGINGVDAVSELSKAQATGFYGSLLPSPDVHGYKSSEMLYNWVAKDVEPPKFTEVTDVVLITRDNFKEELEKKGLGGK	5.11 ± 0.82	5.55 ± 0.61	6.44 ± 0.68	6.58 ± 0.93	6.54 ± 1.9	3.11 ± 0.2	6.07 ± 0.47	12.2 ± 2.1	5.99 ± 0.45	12.3 ± 3.3	5.91 ± 0.24	13.1 ± 0.49
MHLLVHPNGSKYWRLQYRYEGKQKMLALGVYPEITLADARVRRDEARKLLANGVDPGDKKKNDKVEQSKARTFKEVAIEWHGTNKKWSEDHAHRVLKSLEDNLFAALGERNIAELKTRDLLAPIKAVEMSGRLEVAARLQQRTTAIMRYAVQSGLIDYNPAQEMAGAVASCNRQHRPALELKRIPELLTKIDSYTGRPLTRWAIELTLLIFIRSSELRFARWSEIDFEASIWTIPPEREPIPGVKHSHRGSKMRTTHLVPLSTQALAILKQIKQFYGAHDLIFIGDHDSHKPMSENTVNSALRVMGYDTKVEVCGHGFRTMACSSLVESGLWSRDAVERQMSHMARNSVRAAYIHKAEHLEERRLMLQWWADFLDVNRERFISPFEYAKINNPLKQ	5.06 ± 0.41	4.91	–	–	2.44	–	5.13	13.3	–	–	4.82	–
MHLRHLFSSRLRGSLLLGSLLVVSSFSTQAAEEMLRKAVGKGAYEMAYSQQENALWLATSQSRKLDKGGVVYRLDPVTLEVTQAIHNDLKPFGATINNTTQTLWFGNTVNSAVTAIDAKTGEVKGRLVLDDRKRTEEVRPLQPRELVADDATNTVYISGIGKESVIWVVDGGNIKLKTAIQNTGKMSTGLALDSEGKRLYTTNADGELITIDTADNKILSRKKLLDDGKEHFFINISLDTARQRAFITDSKAAEVLVVDTRNGNILAKVAAPESLAVLFNPARNEAYVTHRQAGKVSVIDAKSYKVVKTFDTPTHPNSLALSADGKTLYVSVKQKSTKQQEATQPDDVIRIAL	5.6 ± 0.52	5.877 ± 0.042	5.99 ± 0.71	5.44 ± 0.31	5.53 ± 0.97	3.14 ± 0.065	6.05 ± 0.6	12.2 ± 1.1	5.63 ± 0.093	11.5 ± 1.1	5.44 ± 0.17	11.4 ± 0.18
MHPMLNIAVRAARKAGNLIAKNYETPDAVEASQKGSNDFVTNVDKAAEAVIIDTIRKSYPQHTIITEESGELEGTDQDVQWVIDPLDGTTNFIKRLPHFAVSIAVRIKGRTEVAVVYDPMRNELFTATRGQGAQLNGYRLRGSTARDLDGTILATGFPFKAKQYATTYINIVGKLFNECADFRRTGSAALDLAYVAAGRVDGFFEIGLRPWDFAAGELLVREAGGIVSDFTGGHNYMLTGNIVAGNPRVVKAMLANMRDELSDALKR [P0ADG4]	5.94 ± 0.37	6.49 ± 1.6	5.2 ± 0.23	–	5.39 ± 0.47	3.01 ± 0.21	6.17 ± 0.55	12 ± 0.71	5.53 ± 0.19	10.2 ± 0.39	6.063 ± 0.06	14 ± 1
MHSLQRKVLRTICPDQKGLIARITNICYKHELNIVQNNEFVDHRTGRFFMRTELEGIFNDSTLLADLDSALPEGSVRELNPAGRRRIVILVTKEAHCLGDLLMKANYGGLDVEIAAVIGNHDTLRSLVERFDIPFELVSHEGLTRNEHDQKMADAIDAYQPDYVVLAKYMRVLTPEFVARFPNKIINIHHSFLPAFIGARPYHQAYERGVKIIGATAHYVNDNLDEGPIIMQDVIHVDHTYTAEDMMRAGRDVEKNVLSRALYKVLAQRVFVYGNRTIIL	5.61 ± 0.48	5.19 ± 0.2	4.71 ± 0.23	5.71 ± 1.4	4.94 ± 0.19	2.78 ± 0.4	6.27 ± 1.3	10.5 ± 0.78	4.8 ± 0.3	9.08 ± 0.9	5.77 ± 0.26	12.6 ± 0.46
MHTSELLKHIYDINLSYLLLAQRLIVQDKASAMFRLGINEEMATTLAALTLPQMVKLAETNQLVCHFRFDSHQTITQLTQDSRVDDLQQIHTGIMLSTRLLNDVNQPEEALRKKRA [P0A8S9]	6.51 ± 0.47	–	–	–	–	0.799	–	–	–	–	–	–
MHVFDNNGIELKAECSIGEEDGVYGLILESWGPGDRNKDYNIALDYIIERLVDSGVSQVVVYLASSSVRKHMHSLDERKIHPGEYFTLIGNSPRDIRLKMCGYQAYFSRTGRKEIPSGNRTKRILINVPGIYSDSFWASIIRGELSELSQPTDDESLLNMRVSKLIKKTLSQPEGSRKPVEVERLQKVYVRDPMVKAWILQQSKGICENCGKNAPFYLNDGNPYLEVHHVIPLSSGGADTTDNCVALCPNCHRELHYSKNAKELIEMLYVNINRLQK	5.51	–	4.2	5.87	4.87	–	–	–	4.8 ± 0.71	8.5 ± 1.1	–	10.2
MHVLNILWVVFGIGLMLVLNLKFKINSMVALLVAALSVGMLAGMDLMSLLHTMKAGFGNTLGELAIIVVFGAVIGKLMVDSGAAHQIAHTLLARLGLRYVQLSVIIIGLIFGLAMFYEVAFIMLAPLVIVIAAEAKIPFLKLAIPAVAAATTAHSLFPPQPGPVALVNAYGADMGMVYIYGVLVTIPSVICAGLILPKFLGNLERPTPSFLKADQPVDMNNLPSFGVSILVPLIPAIIMISTTIANIWLVKDTPAWEVVNFIGSSPIAMFIAMVVAFVLFGTARGHDMQWVMNAFESAVKSIAMVILIIGAGGVLKQTIIDTGIGDTIGMLMSHGNISPYIMAWLITVLIRLATGQGVVSAMTAAGIISAAILDPATGQLVGVNPALLVLATAAGSNTLTHINDASFWLFKGYFDLSVKDTLKTWGLLELVNSVVGLIIVLIISMVA [P0AC94]	–	–	–	–	–	2.92 ± 1.2	6.04 ± 0.1	13.5	–	–	–	–
MIAELFTNNALNLVIIFGSCAALILMSFWFRRGNRKRKGFLFHAVQFLIYTIIISAVGSIINYVIENYKLKFITPGVIDFICTSLIAVILTIKLFLLINQFEKQQIKKGRDITSARIMSRIIKITIIVVLVLLYGEHFGMSLSGLLTFGGIGGLAVGMAGKDILSNFFSGIMLYFDRPFSIGDWIRSPDRNIEGTVAEIGWRITKITTFDNRPLYVPNSLFSSISVENPGRMTNRRITTTIGLRYEDAAKVGVIVEAVREMLKNHPAIDQRQTLLVYFNQFADSSLNIMVYCFTKTTVWAEWLAAQQDVYLKIIDIVQSHGADFAFPSQTLYMDNITPPEQGR [P0AEB5]	6.12 ± 0.49	6.41 ± 0.17	6.48 ± 0.5	6.71 ± 0.27	6.07 ± 0.36	3.02 ± 0.1	6.34 ± 0.4	11.9 ± 0.12	6.02 ± 0.14	12.7 ± 1.4	5.86 ± 0.78	–
MIARWFWREWRSPSLLIVWLALSLAVACVLALGNISDRMEKGLSQQSREFMAGDRALRSSREVPQAWLEEAQKRGLKVGKQLTFATMTFAGDTPQLANVKAVDDIYPMYGDLQTNPPGLKPQAGSVLLAPRLMALLNLKTGDTIDVGDATLRIAGEVIQEPDSGFNPFQMAPRLMMNLADVDKTGAVQPGSRVTWRYKFGGNENQLDGYEKWLLPQLKPEQRWYGLEQDEGALGRSMERSQQFLLLSALLTLLLAVAAVAVAMNHYCRSRYDLVAILKTLGAGRAQLRKLIVGQWLMVLTLSAVTGGAIGLLFENVLMVLLKPVLPAALPPASLWPWLWALGTMTVISLLVGLRPYRLLLATQPLRVLRNDVVANVWPLKFYLPIVSVVVVLLLAGLMGGSMLLWAVLAGAVVLALLCGVLGWMLLNVLRRMTLKSLPLRLAVSRLLRQPWSTLSQLSAFSLSFMLLALLLVLRGDLLDRWQQQLPPESPNYFLINIATEQVAPLKAFLAEHQIVPESFYPVVRARLTAINDKPTEGNEDEALNRELNLTWQNTRPDHNPIVAGNWPPKADEVSMEEGLAKRLNVALGDTVTFMGDTQEFRAKVTSLRKVDWESLRPNFYFIFPEGALDGQPQSWLTSFRWENGNGMLTQLNRQFPTISLLDIGAILKQVGQVLEQVSRALEVMVVLVTACGMLLLLAQVQVGMRQRHQELVVWRTLGAGKKLLRTTLWCEFAMLGFVSGLVAAIGAETALAVLQAKVFDFPWEPDWRLWIVLPCSGALLLSLFGGWLGARLVKGKALFRQFAG	6.27 ± 0.098	–	6.06 ± 0.42	6.45 ± 0.35	6.86 ± 0.47	3.48 ± 0.66	6.92 ± 1.4	–	6.21 ± 1.2	13.3 ± 1.4	5.85 ± 0.5	10.5 ± 0.91
MIDFGNFYSLIAKNHLSHWLETLPAQIANWQREQQHGLFKQWSNAVEFLPEIKPYRLDLLHSVTAESEEPLSAGQIKRIETLMRNLMPWRKGPFSLYGVNIDTEWRSDWKWDRVLPHLSDLTGRTILDVGCGSGYHMWRMIGAGAHLAVGIDPTQLFLCQFEAVRKLLGNDQRAHLLPLGIEQLPALKAFDTVFSMGVLYHRRSPLEHLWQLKDQLVNEGELVLETLVIDGDENTVLVPGDRYAQMRNVYFIPSALALKNWLKKCGFVDIRIADVSVTTTEEQRRTEWMVTESLADFLDPHDPGKTVEGYPAPKRAVLIARKP	5.27 ± 0.08	4.888 ± 0.034	5.33 ± 0.13	5.97 ± 1.3	5.36 ± 0.11	3.11 ± 0.086	5.84 ± 0.0082	13.1 ± 3.1	5.59	11.6 ± 2.1	5.89 ± 0.94	12.3 ± 0.86
MIDKSAFVHPTAIVEEGASIGANAHIGPFCIVGPHVEIGEGTVLKSHVVVNGHTKIGRDNEIYQFASIGEVNQDLKYAGEPTRVEIGDRNRIRESVTIHRGTVQGGGLTKVGSDNLLMINAHIAHDCTVGNRCILANNATLAGHVSVDDFAIIGGMTAVHQFCIIGAHVMVGGCSGVAQDVPPYVIAQGNHATPFGVNIEGLKRRGFSREAITAIRNAYKLIYRSGKTLDEVKPEIAELAETYPEVKAFTDFFARSTRGLIR [P0A722]	5.73 ± 0.15	5.26 ± 0.2	5.49 ± 0.17	5.48 ± 0.32	5.59 ± 0.7	3.06 ± 0.068	5.79 ± 0.17	10.9 ± 0.052	5.52 ± 0.27	10.4 ± 0.94	5.95 ± 0.41	12.5 ± 0.48
MIDLRSDTVTRPSRAMLEAMMAAPVGDDVYGDDPTVNALQDYAAELSGKEAAIFLPTGTQANLVALLSHCERGEEYIVGQAAHNYLFEAGGAAVLGSIQPQPIDAAADGTLPLDKVAMKIKPDDIHFARTKLLSLENTHNGKVLPREYLKEAWEFTRERNLALHVDGARIFNAVVAYGCELKEITQYCDSFTICLSKGLGTPVGSLLVGNRDYIKRAIRWRKMTGGGMRQSGILAAAGIYALKNNVARLQEDHDNAAWMAEQLREAGADVMRQDTNMLFVRVGEENAAALGEYMKARNVLINASPIVRLVTHLDVSREQLAEVAAHWRAFLAR	5.25 ± 0.99	–	4.88 ± 0.86	5.53 ± 0.73	4.18 ± 0.28	3.162 ± 0.023	5.88 ± 0.24	10.8 ± 0.43	4.39 ± 0.4	6.44 ± 0.27	5.87 ± 0.12	11.2 ± 1.5
MIDYTAAGFTLLQGAHLYAPEDRGICDVLVANGKIIAVASNIPSDIVPNCTVVDLSGQILCPGFIDQHVHLIGGGGEAGPTTRTPEVALSRLTEAGVTSVVGLLGTDSISRHPESLLAKTRALNEEGISAWMLTGAYHVPSRTITGSVEKDVAIIDRVIGVKCAISDHRSAAPDVYHLANMAAESRVGGLLGGKPGVTVFHMGDSKKALQPIYDLLENCDVPISKLLPTHVNRNVPLFEQALEFARKGGTIDITSSIDEPVAPAEGIARAVQAGIPLARVTLSSDGNGSQPFFDDEGNLTHIGVAGFETLLETVQVLVKDYDFSISDALRPLTSSVAGFLNLTGKGEILPGNDADLLVMTPELRIEQVYARGKLMVKDGKACVKGTFETA	6.21 ± 0.27	5.9 ± 0.13	5.497 ± 0.0056	5.68 ± 0.064	5.3 ± 0.21	2.93 ± 0.1	5.97 ± 0.45	12.8 ± 0.66	5.29 ± 0.25	9.01 ± 0.33	6.11 ± 0.39	13.1 ± 0.29
